Measurements published in the DeepSol protein solubility set.

Test: soluble on expression in E. coli; label from the status in PepcDB or PDB records

Soluble on expression in E. coli, not soluble:
MRREERNMDKLLISFLLSLFMVYFPPSDVVLPSQFEASTDSYVPMSSYPQETQSAKTPSPGSMHPAELIKEYSPLAQSVRQLSVKPLDEPLINRLEKALAVPVKYQSNYLRILEHHHHHH, MSLIGALIATIIPGLSNNSPPTQLSSLATLALPLPPPYTSTADTWRMVTIKPGQTLSSIFNELKLSSNDMERVLNYADLRKLLTRLSPGDEISFDIPNDGQLRGMRFNRDEKHRVELTLDDNTIHQQVSERQTSTRTVIASGEIKSSLWIAAREAGLSPADVITLTDEIFKYDIDFDKDLQTGDRFSVVMDETWREGERLPDAKILAATFNTGGKIYSGMRFMRDGKVEYFDKDGRPLKKSFIRMPISYARLSSTFGLRRHPILGTMRMHKGVDYAAATGTPIMAAGDARVQFIGQQRGYGNVVILNHGKGYRTLYGHMSRFGKIKAGQKINQGTVIGYVGMTGLATGPHLHYEFQVNGQHRNPLSITMPPPEPLRGKDLIAFRTQTAPLIAQIQQYEKRFYAITNKHDSKSTEKSTRGEGHHHHHH, MSAEPEFVAARFLPEGERFLVEPLGGGLINRTWLVSPAASPRFVLQRLNTRVFAHPGRITVNLCRIQGRVKQGRSGLAEHWPDLVAPRAGGDAFIDAEGGYWRAQRYLEGSRVLEHIATERQALEVGRVLGTFHAALGEIDCTELEDTLPDFHIAPAYLARLDAVRTSAGAADPSVRQALDFVEARRDFVPVLERAKAAGRLALRIIHGDPKLANILFDRDGERALTLIDLDTVKPGLVHYDIGDCLRSCCNRSGESSDDPGAARFDLALCEAILRGYLAAAGDMLTAEDRDHLYDAIRLIPLELGIRFLADHLAGDVYFRVESRGQNLRRARVQFRLVECIEADETAIRRIVAAPSPSMETGEGLEHHHHHH, MAFLARKTSSLLPATTSSTVKHMIYDEPHFAMQNSLAKLIKEKINPNVAQWEKSGRYPAHFVFKMLGQLGVFAVNKPVDYGGTGRDFAMSIAIAEQIGAVDCGSIPMSVMVQSDMSTPALAQFGSDSLRNRFLRPSINGDLVSSIAVSEPHAGSDVSAIRTHARRYGSDLIINGSKMWITNGDQADWACVLVNTSNAKNLHKNKSLVCIPLDSIGVHRSTPLDKLGMRSSDTVQLFFEDVRVPSSYIIGEEGRGFAYQMNQFNDERLVTVAVGLLPLQKCINETIEYARERLIFGKTLLDQQYVQFRLAELEAELEATRSLLYRTVLARCQGEDVSMLTAMAKLKIGRLARKVTDQCLQIWGGAGYLNDNGISRAFRDFRIFSIGAGCDEVMMQIIHKTQSKRQQKRI, MSVLIPLVTVDGRDSVLLTKRSIHLRSHRGEVCFPGGRMDPGETTTETALRETFEEIGVNAESVEIWGHLKSVIRRQADFNVTPIVGYISDERVLENLVVNSDEVQAVFTIPIDELIKKAGLTKFQSKRMKYTLPSFDSTEFKVHHNAPNEYLHSTQRVWGLSGVMLHQALTLLNPDVYKHDLIVKFF, MGSDKIHHHHHHMSQLDMKMKLKQYEQTVIEYLGAQGGHFIVASDDQTFVGILRTTLLKQLAISGDPLTSVTDPDYILKVIRDTSLRRKHLVVFIERMMQGKDTSMLVRQMKNTFANVKIIILTGETERQRLVLLHEIGADNFISKPISINTLIEKIAFTIKPQGKLGQLIDAAKALVAQGNFETALKAARKILEVKPNSAAGYLVMGDAWQGLGKLDKARESFEQASEHANLYMEPLKKLAELHKLTGDMNERLRYLERLDQLSPLNVERKVDMGEIHVELGNEERAEELFETAVQQATKDALNYIGEISEKIAAVYSSRDPHKAEKYYRQALDAKGSHLDHTDIATFNRLGIALRRQGKWQQAIEEYEKALHITPDDPNLMYNMSMAYAEGRQFDKACSIVMRIRQITPSFGSMDKTLSYNMGIIFSRGRQPADARVLFENALRLDPSFEKAQKALENLES, MGVSLAKGGNVSLSKEAPGLTAVLVGLGWDVRTTTGTDYDLDASALLLDTSGKVLSDGHFVFYNNLTSPDGSVEHTGDNLTGEGEGDDEAVKVNLVAVPAEVDRIVFPVSIHDAENRGQSFGQVRNAFIRVVNQANNQELARYDLSEDASTETAMVFGELYRHGAEWKFRAVGQGYASGLAGIAADFGVNV, MKVAAKKLATSRMRKDRAAAASPSSDIENSENPSSLASHSSSSGRMTPSKNTRSRKGVSVKDVSNHKITEFFQVRRSNRKTSKQISDEAKHALRDTVLKGTNERLLEVYKDVVKGRGIRTKVNFEKGDFVVEYRGVMMEYSEAKVIEEQYSNDEEIGSYMYFFEHNNKKWCIDATKESPWKGRLINHSVLRPNLKTKVVEIDGSHHLILVARRQIAQGEELLYDYGDRSAETIAKNPWLVNT, MIDTPDLETRAAPEDHHALRLWLRMLTCCNLIESEIRSRLRTEFDTTLPRFDLMAQLQRAPKGMKMGELSRHMMVTNGNITGITDQLEKEGLVVRTKVESDRRSSVLKLTPQGKRTFARMARAHESWVTGMLDDLPEASRHAMYKALGELKLQVVAHRALAQRDGAS, MAHHHHHHMNAVKLPEEWETLCSTNDAEVIHECINGVFRRLLANLLLDFNNPKLRQVKKDNKALHRLTDSLPAGFIEFLFSSIGFVEHDDVFIFEGSPESLKHGDAVLSYIEDSFGKERLQAAECELHRLRNLAIKKAENGLAPREMMTATAPLPRTQPLPQEEDAKRQAQHSGTEKDVAEEHAVKETVRKTLLNTGRVRNGFFEARDFSVRIMQHGRVYACTEKCPDHCVEVHWHLLTGRNILYSHLAHLSADGTRLLHLGPEHGYQYNSLPGSANFGKMIHFSEKLMDENGRLVHIKNDDKPVTACIYCGRAFAQLLL, MDDASPTLASVIIPAFNAEAVLEQAVDSVRASIAHCAAHLAAAPAGAFEIILVDDASTDATLALARRLAAEDPRITVIARRRNGGAGPARNAGARAAKGEILFYLDADDGFLPPHVLACLQELLRHPEAGLVKTGIAVDFPLTEEWRQALIVSVVFNTALWKRCHEAIGGFMEDPELCVLRCEDVFYCDLLMRAFPARGIEAQTVRHTLRPGGAFDGQRAKFSAPPGEGPESLTPAQSAVLPLIRARHAERLARLGLEDAEALEHHHHHH, MNQQDIEQVVKAVLLKMKDSSQPASTVHEMGVFASLDDAVAAAKRAQQGLKSVAMRQLAIHAIREAGEKHARELAELAVSETGMGRVDDKFAKNVAQARGTPGVECLSPQVLTGDNGLTLIENAPWGVVASVTPSTNPAATVINNAISLIAAGNSVVFAPHPAAKKVSQRAITLLNQAVVAAGGPENLLVTVANPDIETAQRLFKYPGIGLLVVTGGEAVVDAARKHTNKRLIAAGAGNPPVVVDETADLPRAAQSIVKGASFDNNIICADEKVLIVVDSVADELMRLMEGQHAVKLTAAQAEQLQPVLLKNIDERGKGTVSRDWVGRDAGKIAAAIGLNVPDQTRLLFVETPANHPFAVTEMMMPVLPVVRVANVEEAIALAVQLEGGCHHTAAMHSRNIDNMNQMANAIDTSIFVKNGPCIAGLGLGGEGWTTMTITTPTGEGVTSARTFVRLRRCVLVDAFRIV, MGSDKIHHHHHHMEFPGVKALDDVHFSVKRGEIHALVGANGAGKSTLMKVLAGAYASYEGTILFDGVPLAIDSPNAAKRAGIEIVYQEVDTALVDYLTVAENICLDMLASGQLKGVIRRRRYEEIAERALQKLKASIDVRQRVSELRLAEKQLVLIARALVQESRFLILDEPTAPLSGRETEQLFRIIRELAEKEHLGVIFISHRLQELFEICESISVMRDGKMVSRQLLAGQTKETVVEQMLGRRLQKSSREARPAGAPSLELDRITVAGQLDEISLTVRAGEVIGIAGLVGAGKTELCKTIFGSIPVTSGLMRLAGETRRIRSAYDAVRLGIGLVPEERRKEGILVADPIEQNMTAASLKQFVNRFGFVEKKKERAAANRIVQQLSIKVSDTRQRAAELSGGNQQKVAIGKWLLADASVLVLDEPTKGVDVGAKAEIFQVIDQLAAEQKAVIYASSELDELLAVTDRIYVMYDGQIVFEATTSETTEEQLLWYATGGQQHE, MGSDKIHHHHHHLFSEAQMQKMGAESFASMNQEQKVSKDKALTTYVNCVAKRITDVLPGEAKPWELVLFESDQVNAFAVPGGFIGVYTGLLNVANTQDQLATVLGHEVAHVLAHHGNEQVSRAQMTGLGIQLADVALGAGGVSNKDLYMQALGLGAKVGYILPFGRTQESEADVMGLELMAKAGFDPSQSITLWQNMAKAGGAQGPELLSTHPSNERRIQDLQGLQGRVAPLYLAARETQLAKCIQPGKK, MKLGVVTRKGKRQDDIRMFSQFFEVKVYEIPEELPELIDEPAEILRLPDDFDVDMIVSFAAHPDINLELIKQAAERGIGLVIISGGAKGGAYKQLKEEGEKRGVRVVWEEICCATPKVEDERTREFFEHFGAPEVEVEVENGKVKDVRVKRSAFCGATYYVAEKIKGLSVEEAPTKAGYYTQIYPCLAPRGHEGGIHKAARAHKRAVEKAIEKSK, MGSDKIHHHHHHMHTFLASSSMQLSVPPNHFQSMKIVALGDSLIYGFGDPEKGGWIEQLRRWWMLPDSAGHVLYNLGVRGDRTQQVAQRLEVEFRHRGELRNRVPDLIILSVGVNDSARLARPDGRSYTDFTLFEKEIATLLDLAQQLCPVLFVGMVPVDEAKMPFLDCFYYNHVDQYRYKEATRLACTKRQIPYLDIFEKWMERGENWRLKRLSEDGLHPNTLGYQALLEDVINWDAIHSVGFANAAYHSQFNYHLKQS, MAPVLGLLENEAKVKSIIRNNNLLEKKFSSFQRQCRDLSRNHALLDSCCSQVKHSATAAEEMSVSDKDVKNHQKKLHSFLAQSTDQVNSTIDKMDFFCSKGNHSLPMEMSVLSITLPYEACIEKSAKKHETMVFSIDEVSSAVQHLENEKVDVEKRQSSTGKLIFQTEKEIMKLKEEIQVNTNLESNIIQLSLEKLSSVKDSSTSENVYKAKLEEEINEARQIYEDALKQDVISQESAMMTQQLESLNELCSDLSDLNKINLTSIEKFPDCNEVCELSDELQTLEKSEAENSESIINLEASLEDIKYQNKKVRKSFDQINQLENAYIVKKEVLTRKKSAIEDVKRQIAESKITLNKLKVTVRAVERSDTPENVESKKEEAFRRLVASSTELPGPESFQRDNVRNVEKSLRFKKWNQRTTSQSSFTSDSTRSIGPIGVHYPGIKLINKDAATPTEVIRKITSELNESATSEDSTFDDDTGTTQDESGLNAFFNSPVSKEQTSMRPQFSMIAHMEKYDTMQAKKNMDKLPDNVRRESEMEHISHNYGRPSEVNRPASVSSKRHDPAASISATSEESILSGTTQDESMLNDFFNPTGTDEKLNDVEFSMTAHVAEFDNRQKAKRAAEQIKKSSSKISGKKEESVADDKSSGNSYVAESEAGFSQGSEENESMDDEDLVAPDDGGLDQTIWDGDD

Soluble on expression in E. coli, soluble:
SVCAEAYNPDEEEDDAESRIIHPKTDDQRNRLQEACKDILLFKNLDPEQMSQVLDAMFEKLVKEGEHVIDQGDDGDNFYVIDRGTFDIYVKCDGVGRCVGNYDNRGSFGELALMYNTPRAATITATSPGALWGLDRVTFRRIIVKNNAKKRKMYESFIESLPFLKSLEVSERLKVVDVIGTKVYNDGEQIIAQGDSADSFFIVESGEVRITMKRKGKSDIEENGAVEIARCLRGQYFGELALVTNKPRAASAHAIGTVKCLAMDVQAFERLLGPCMEIMKRNIATYEEQLVALFGTNMDIVEPTA, HSHSDKHPVTWQPSKDGDRLIGRILLNKRLKDGSVPRDSGAMLGLKVVGGKMTESGRLCAFITKVKKGSLADTVGHLRPGDEVLEWNGRLLQGATFEEVYNIILESKPEPQVELVVSR, ALSGSSGYKFGVLAKIVNYMKTRHQRGDTHPLTLDEILDETQHLDIGLKQKQWLMTEALVNNPKIEVIDGKYAFKPKYNVR
